From patent US20010018511A1 (CANCER RESEARCH CAMPAIGN TECHNOLOGY, published 2001) come the findings set out here.

B1: phage clone BB3 (peptide)
chain: PAFSRFWSDLSAGAH
notes: Tested as whole phage showing the peptide; also called hdm2 phage; hdm2-phage; not shown: minor coat protein III of the filamentous phage of the display library; the peptide stands at its N-terminus; phage stra
B2: phage clone 12/2 (peptide)
chain: VQNFIDYWTQQF
notes: Tested as whole phage showing the peptide; not shown: minor coat protein III of the filamentous phage of the display library; the peptide stands at its N-terminus; phage stra
B3: phage clone 12/5 (peptide)
chain: TGPAFTHYWATF
notes: as for B2
B4: phage clone 15/1 (peptide)
chain: IDRAPTFRDHWFALV
notes: as for B2
B5: phage clone 15/5 (peptide)
chain: PRPALVFADYWETLY
notes: as for B2
B6: phage clone 12/1 (peptide)
chain: MPRFMDYWEGLN
notes: as for B2

The target of this test is T1, GST-hdm2 (1-188) (S. japonicum; human, UniProt Q00987 1-188).
T1 construct: range 1-188; Fusion made in E. coli BL21 from pGEX-2T; GST, linker, hdm2 1-188 in this order; also called GST-hdm2 protein
T1 sequence (Q00987 1-188): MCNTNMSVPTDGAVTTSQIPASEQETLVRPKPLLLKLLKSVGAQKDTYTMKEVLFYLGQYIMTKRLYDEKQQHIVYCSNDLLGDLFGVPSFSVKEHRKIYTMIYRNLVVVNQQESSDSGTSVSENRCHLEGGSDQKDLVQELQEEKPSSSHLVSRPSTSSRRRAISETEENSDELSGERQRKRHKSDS
In words: single clone phage ELISA on coated antigen. How it is done:
Amplified and purified phages from this round of biopanning are tested in an ELISA on the proteins used for their selection. For single clone screening E.coli K91 cells are infected with appropriate phage dilutions and spread on LB agar with 20 μg/ml tetracycline. Single colonies are transfered to wells of a 96-well tissue culture plate containing 200 μl 2×YT medium with 20 μg/ml tetracycline per well. Phage supernatant is collected for ELISA screening after a 24 hour incubation at 37° C. with shaking. ELISA positive clones are grown up as 2 ml bacterial cultures in 2×YT medium with 20 μg/ml tetracycline for 24 hours. Phage are PEG precipitated and redissolved in 200 μl TBS buffer. Phage DNA is extracted with phenol/chloroform and ethanol precipitated. The DNA pellet is redissolved in 10 μl water and used as template for sequencing (Sequenase).
100 μl phage suspension (supernatant or PEG concentrated phage) is diluted in PBST-M and added for three hours at 4° C. Bound phages are reacted with 100 μl HRP-labelled sheep anti-M13 antibody (Pharmacia) for one hour at room temperature followed by substrate development with 100 μl TMB/H202 (0.1 mg/ml TMB, 0.3% H₂O₂ in 0.1 M Na-acetate, pH 6.0) for 15 min. The reaction is stopped by adding 100 μl 1 M sulphuric acid to the substrate and the absorbance is measured at 450 nm. All washings between the incubation steps are done with tap water.
In the case of B1, the binding result is “binds”.

On to B2, for which the binding result is “binds”.

As to B3, the binding result was “binds”.

On to B4, for which the binding result is on record as “binds”.

B5: the binding result is listed as “binds”.

Turning to B6, the binding result was “binds”.
